The numbers were not newly measured in PMC4016011, which cites them from elsewhere.

For the data set, the target named is neuronal nitric oxide synthase PDZ (UniProt P29475).
Chain of neuronal nitric oxide synthase PDZ (P29475 17-99): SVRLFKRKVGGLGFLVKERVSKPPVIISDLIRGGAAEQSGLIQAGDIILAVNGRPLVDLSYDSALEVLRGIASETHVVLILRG

Chain of syntrophin PDZ (Q13424 87-170): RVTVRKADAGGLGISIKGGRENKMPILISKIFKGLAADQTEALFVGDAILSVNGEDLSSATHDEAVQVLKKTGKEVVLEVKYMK

As to syntrophin PDZ (from UniProt Q13424), the Kd was 600 nM.

Usually Kd stands for the free concentration of one partner at which half of the binding sites on the other are occupied at equilibrium, for simple one-to-one binding.
